What was measured:
PAD = target: T1, PAD (Heyndrickxia coagulans, UniProt A0A0C5C6Z1); assay: whole-cell decarboxylation to 4-vinylguaiacol, HPLC; format: cell-based; conditions: co-expressed with MapADO; 200 mM phosphate pH 7.4, 30 °C
T1 construct: gene SB48_HM08orf00536; co-expressed with MapADO on one pET28 vector, E. coli BL21 (DE3) resting cells
T1 sequence (A0A0C5C6Z1 1-167): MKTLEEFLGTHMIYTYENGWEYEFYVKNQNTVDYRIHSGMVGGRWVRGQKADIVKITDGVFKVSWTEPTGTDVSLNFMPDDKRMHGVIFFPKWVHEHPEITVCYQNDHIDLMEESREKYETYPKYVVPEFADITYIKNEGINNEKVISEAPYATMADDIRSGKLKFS

MapADO = target: T2, MapADO (Moesziomyces aphidis, UniProt W3VHW6); assay: continuous UV-Vis initial rate of vanillin formation ([…] nm); format: biochemical; conditions: O2 co-substrate; 10 mM potassium phosphate pH 7.4, 30 °C, 2% EtOH; initial-rate value taken (endpoint HPLC fit also printed in the 2nd table, row 3)
T2 construct: gene PaG_05861; codon-optimized, pET-28a, His6 tag, E. coli BL21 (DE3), IMAC purified, FeCl2 supplemented

endpoint HPLC-UV [1] = substrate: C=Cc1ccc(O)c(OC)c1; assay: endpoint HPLC-UV; format: biochemical, Moesziomyces aphidis; conditions: O2 co-substrate, 10 mM potassium phosphate pH 7.4, 30 °C, 2% EtOH, endpoint measurement (authors: endpoint overestimates kcat and KM)
Source text: (§1) endpoint HPLC-UV on MapADO

endpoint HPLC-UV [2] = substrate: Oc1ccc(/C=C/c2cc(O)cc(O)c2)cc1; assay: endpoint HPLC-UV; format: biochemical, Moesziomyces aphidis; conditions: O2 co-substrate, 10 mM potassium phosphate pH 7.4, 30 °C, 2% EtOH, endpoint measurement (authors: endpoint overestimates kcat and KM)
Source text: as §1

[3] = substrate: COc1cc(/C=C/CO)ccc1O; assay: UV-Vis spectrophotometric initial rate; format: biochemical, Moesziomyces aphidis; conditions: O2 co-substrate, 10 mM potassium phosphate pH 7.4, 30 °C, 2% EtOH
Source text: UV-Vis spectrophotometric initial rate on MapADO

COc1cc(/C=C/C(=O)O)ccc1O [2a, ferulic acid]
whole-cell decarboxylation to 4-vinylguaiacol, HPLC (PAD): The decarboxylation was effective and resulted in the rapid accumulation of 2b

CC=Cc1ccc(O)c(OC)c1 [1b, isoeugenol]
Km (MapADO): 118 ± 13 µM

B1: MapADO (Moesziomyces aphidis) (protein)
chain: MAPTATQEPVPVPVTSKAAPSHGYVHPTDILPSGWPTATDLSGGAQPRRFEGTIFDVMTRGTIPKELHGTFYRIMPDYAQPPTYYKGGELNAPIDGDGTVAAFRFKDGKVDYRQRFVETDRFKVERRARKSMYGLYRNPYTHHPCVRQTVESTANTNVVMHAGRFLAMKENGNAYEMDPHTLKTLGYNPFNLPSKTMTAHPKQCSVTGNLVGFGYEAKGLATKDVYYFEVDPSGKVVRDLWLEAPWCAFIHDCALTPNYLVLMLWPFEANLERMKAGGHHWAYDYTKPITWITIPRGAKSKDEVKYWHWKNGMPIHTASGFEDEQGRIIIDSSLVHGNAFPFFPPDSDEQKKKQEADGTPKAQFVRWTIDPRKDNNEQLPDPEVILDTPSEFPQIDNRFMGVEYSSAFINVFVPDRSDGNKNVFQGLNGLAHYKRKEGTTEWYYAGDNCLIQEPVFSPRSKDAPEGDGFVLAIVDRLDLNRSEVVVIDTRDFTKAVAAVQLPFAIRSGIHGQWIPGEVTPDFETKGLVDLPKEEHWAPLSQSPYDPDA
notes: codon-optimized, pET-28a, His6 tag, E. coli BL21 (DE3), IMAC purified, FeCl2 supplemented
Km (endpoint HPLC-UV [1]): 220 ± 46 µM
kcat (endpoint HPLC-UV [1]): 361 ± 12 s⁻¹
Km (endpoint HPLC-UV [2]): 49 ± 9 µM
kcat (endpoint HPLC-UV [2]): 3.2 ± 0.1 s⁻¹
Km [3]: 445 ± 125 µM
kcat [3]: 90 ± 8 s⁻¹

Reference: publication PMC12333492, “Co-enzyme-free, enzymatic synthesis of aldehydes from renewable resources with a new and highly efficient alkene cleaving dioxygenase” (Green Chemistry, 2025)
